Reference: patent US20220348635A1, “COMPOSITIONS AND METHODS FOR NEUROLOGICAL DISEASES” (Coda Biotherapeutics, Inc., priority 2019, published 2022)
Positions count from the first letter of the chain named. Numbers in names are those of the source.

Columns and labels:
Type in all cases: cell-based
[1] = YFP quench plate reader assay, response to ABT-126; settings: LX293T YFP reporter cells; for percent quench of YFP fluorescence, 50 nM abt: 50 nM ABT-126; for percent quench of YFP fluorescence, 100 nM abt: 100 nM ABT-126; for percent quench of YFP fluorescence, 300 nM abt: 300 nM ABT-126; for percent quench of YFP fluorescence, 1 uM abt: 1 uM ABT-126
Source text: (§1) FIGS. 1A-FIG. 1G show the heat maps of the percent quench of YFP fluorescence in the mutants of the engineered chimeric receptor SEQ ID NO:33 that comprise the indicated double amino acid substitutions following stimulation by various doses of either acetylcholine or the indicated non-native ligand. Ligand doses are written across the top of each chart. Numbers in the boxes indicate the absolute amount of quench observed. Dark blue=80% maximal quench of YFP reporter. Light blue=quench of 30-80%. White=10-30%. Orange=0-10% quench. Negative values represent non-responders that have a negative quench due to a stimulation artifact. SEQ ID NO:29 is a non-responding chimera used as a negative control. Abbreviations for non-native ligand names: abt: ABT-126; ach: acetylcholine; apn: APN-1125; azd: AZD-0328; brd: TC-5619; fac: RG3487; tc6: TC-6987.
(§2) Tables 2-8 below lists percent quench of YFP fluorescence following stimulation of the indicated engineered receptor by various doses of either acetylcholine or the non-native ligand.
(§3) To screen these mutant LGICs for those having novel response profiles to ligands, an anion reporter assay was developed to assess the function of channels in a high throughput format. In this assay, cells expressing a YFP reporter whose fluorescence is quenched in the presence of anion are transfected with DNA encoding the channel of interest. Upon exposure to ligand, channels that are activated will flux anion, resulting in a dose-dependent quench of the YFP that can be detected on a plate reader.
(§4) Lenti-X 293T cells (LX293T, Clontech) were maintained in DMEM containing 10% FBS and 1% penicillin/streptomycin (Invitrogen). […] Two days before assay, cells were split at a density of 20,000 cells/well in a 96-well tissue culture plate coated with poly-d lysine (Thermo Scientific). The next day, the cells were transiently transfected with 0.1 μg of DNA per well using standard Fugene protocol (Promega). On the day of assay, cells were washed 2 times in 1× extracellular solution (1×ECS: 140 mM NaCl, 5 mM KCl, 1 mM MgCl2, 2 mM CaCl2, 10 mM HEPES, 10 mM glucose, pH 7.2, mOsms 300). After the last wash, 100 μL of 1×ECS was added to the wells and the plate was incubated at 37° C. for 30 min. While incubating the plate, the drugs were diluted to a 2× concentration in 1×ECS-NaI (same components as 1×ECS except the 140 mM NaCl was replaced by 140 mM NaI). The plates were then read on a Flexstation3 (Molecular Devices). Each well, 8 wells at a time, of the plate is read for 2 min using a Flexstation3 (Molecular Devices) as follows: 1) a baseline YFP fluorescence is read for 17 sec, 2) 100 μL of ligand is added, and 3) the changes in YFP fluorescence are then measured every 1.3 sec for the remaining time.
(§5) FIG. 1 provides heat maps of the percent quench of YFP fluorescence following stimulation by various doses of either acetylcholine or the non-native ligand as indicated in the Figure. A positive fluorescence signal, as indicated by blue shaded cells, indicate that the engineered receptor is activated by the non-native ligand at that concentration. […] Table 12 lists the EC50 values for the indicated double mutants to acetylcholine (Ach) and TC-5619 as determined from the YFP fluorescence plate reader experiment.

[2] = YFP quench plate reader assay, response to acetylcholine; settings: LX293T YFP reporter cells; for percent quench of YFP fluorescence, 10 uM ach: 10 uM acetylcholine; for percent quench of YFP fluorescence, 100 uM ach: 100 uM acetylcholine; for percent quench of YFP fluorescence, 1 mM ach: 1 mM acetylcholine; for percent quench of YFP fluorescence, 3 mM ach: 3 mM acetylcholine
Source text: as §1, §2, §3, §4, §5

[3] = YFP quench plate reader assay, response to APN-1125; settings: LX293T YFP reporter cells; for percent quench of YFP fluorescence, 100 nM apn: 100 nM APN-1125; for percent quench of YFP fluorescence, 1 uM apn: 1 uM APN-1125; for percent quench of YFP fluorescence, 30 uM apn: 30 uM APN-1125
Source text: as §1, §2, §3, §4, §5

[4] = YFP quench plate reader assay, response to AZD-0328; settings: LX293T YFP reporter cells; for percent quench of YFP fluorescence, 100 nM azd: 100 nM AZD-0328; for percent quench of YFP fluorescence, 300 nM azd: 300 nM AZD-0328; for percent quench of YFP fluorescence, 30 uM azd: 30 uM AZD-0328
Source text: as §1, §2, §3, §4, §5

[5] = YFP quench plate reader assay, response to TC-5619; settings: LX293T YFP reporter cells
Source text: as §1, §2, §3, §4, §5

[6] = YFP quench plate reader assay, response to RG3487; settings: LX293T YFP reporter cells; for percent quench of YFP fluorescence, 30 nM fac: 30 nM RG3487; for percent quench of YFP fluorescence, 300 nM fac: 300 nM RG3487; for percent quench of YFP fluorescence, 30 uM fac: 30 uM RG3487
Source text: as §1, §2, §3, §4, §5

[7] = YFP quench plate reader assay, response to TC-6987; settings: LX293T YFP reporter cells; for percent quench of YFP fluorescence, 1 uM tc6: 1 uM TC-6987; for percent quench of YFP fluorescence, 10 uM tc6: 10 uM TC-6987; for percent quench of YFP fluorescence, 500 uM tc6: 500 uM TC-6987
Source text: as §1, §2, §3, §4, §5

[8] = High throughput electrophysiology in HEK293T cells, AZD-0328; settings: HEK293T cells, held at −60 mV
Experimental: To confirm the EC50s determined by plate reader as well as develop a better understanding of maximum current flow, the engineered receptors were subjected to high throughput electrophysiology system, as described below. For HEK293T studies, cDNAs encoding ion channels were cloned into pcDNA3.1 using standard recombination techniques. HEK293T cells from Clontech (Lenti-X™ 293T Cell Line) were cultured in DMEM supplemented with 10% FBS and 1% Pen/Strep to 40-50% confluence using standard cell culture protocols, transfected with ion channel plasmids at a concentration of 18 μg per 15 cm dish using Fugene 6, and grown for an additional 24 hours. Cells were then assayed on a electrophysiological system (IonFluxHT and/or Mercury, Fluxion Biosciences) in which dose-response relationships may be assessed through a microfluidics-based platform for establishing whole cell configurations. Ensemble plates were primed with extracellular buffer (140 mM NaCl, 5 mM KCl, 2 mM CaCl2), 1 mM MgCl2, 10 mM HEPES, and 10 mM glucose, pH 7.2 with NaOH, mOsm 310), intracellular buffer (145 mM CsCl, 2 mM CaCl2, 2 mM MgCl2, 10 mM HEPES, and 10 mM EGTA, pH 7.2 with CsOH, mOsm 305), as adapted from Lynagh and Lynch, and test compounds (stocks prepared fresh) diluted in extracellular buffer. Cells were then released from the plate with Accutase, centrifuged, resuspended in extracellular buffer, and loaded into Ensemble plates. Cells were then subjected to a standard protocol for priming, trapping, breaking, and establishing whole cell configuration, with cells held at −60 mV throughout the recording. After recording baseline, progressive doses of test compounds were applied using the IonFlux software to assess dose response relationships. Data were then analyzed off-line using custom Python scripts to convert data to .csv format, re-plot traces, and apply QC measurements to reject unstable recordings (i.e. thresholding based on access resistance and/or standard deviation in baseline, as well as artifact rejection). Peak currents were then calculated and population data were fit using a 4-parameter logistic equation as described by the Hill Equation. Currents were measured on an automated patch clamp system (Fluxion Biosciences) following 1 second addition of drug and the EC50 values calculated are tabulated below in Table 13.

B1: L131S, S172D in SEQ ID NO: 33: engineered chimeric α7-nAChR/GlyRα1 LGIC receptor: SEQ ID NO: 33 with substitutions L131S and S172D (protein)
chain: MRCSPGGVWLALAASLLHVSLQGEFQRKLYKELVKNYNPLERPVANDSQPLTVYFSLSLLQIMDVDEKNQVLTTNIWLQMSWTDHYLQWNVSEYPGVKTVRFPDGQIWKPDILLYNSADERFDATFHTNVSVNSSGHCQYLPPGIFKSSCPMDLKNFPMDVQTCKLKFGSWDYGGWSLDLQMQEADISGYIPNGEWDLVGIPGKRSERFYECCKEPYPDVTFTVTMRRRMGYYLIQMYIPSLLIVILSWISFWINMDAAPARVGLGITTVLTMTTQSSGSRASLPKVSYVKAIDIWMAVCLLFVFSALLEYAAVNFVSRQHKELLRFRRKRRHHKSPMLNLFQEDEAGEGRFNFSAYGMGPACLQAKDGISVKGANNSNTTNPPPAPSKSPEEMRKLFIQRAKKIDKISRIGFPMAFLIFNMFYWIIYKIVRREDVHNQ
modifications: synthetic sequence of chimeric LGIC
percent quench of YFP fluorescence, 50 nM abt [1]: −11.96%
percent quench of YFP fluorescence, 100 nM abt [1]: −10.72%
percent quench of YFP fluorescence, 300 nM abt [1]: 11.65%
percent quench of YFP fluorescence, 1 uM abt [1]: −3.06%
percent quench of YFP fluorescence, 10 uM ach [2]: −11.3%
percent quench of YFP fluorescence, 100 uM ach [2]: −27.53%
percent quench of YFP fluorescence, 1 mM ach [2]: 2.84%
percent quench of YFP fluorescence, 3 mM ach [2]: 14.65%
percent quench of YFP fluorescence, 100 nM apn [3]: 14.26%
percent quench of YFP fluorescence, 1 uM apn [3]: 45.55%
percent quench of YFP fluorescence, 30 uM apn [3]: 64.93%
percent quench of YFP fluorescence, 100 nM azd [4]: −9.32%
percent quench of YFP fluorescence, 300 nM azd [4]: 4.94%
percent quench of YFP fluorescence, 30 uM azd [4]: 60.61%
percent quench of YFP fluorescence, 1 nM brd ([5]; 1 nM TC-5619): −1.13%
percent quench of YFP fluorescence, 3 nM brd ([5]; 3 nM TC-5619): −3.83%
percent quench of YFP fluorescence, 10 nM brd ([5]; 10 nM TC-5619): −3.78%
percent quench of YFP fluorescence, 100 nM brd ([5]; 100 nM TC-5619): −2.03%
percent quench of YFP fluorescence, 1 uM brd ([5]; 1 uM TC-5619): 1.68%
percent quench of YFP fluorescence, 30 nM fac [6]: −23.44%
percent quench of YFP fluorescence, 300 nM fac [6]: 2.75%
percent quench of YFP fluorescence, 10 uM fac ([6]; 10 uM RG3487): 69.71%
percent quench of YFP fluorescence, 30 uM fac [6]: 61.44%
percent quench of YFP fluorescence, 1 uM tc6 [7]: −20.99%
percent quench of YFP fluorescence, 10 uM tc6 [7]: −27.62%
percent quench of YFP fluorescence, 500 uM tc6 [7]: −24.22%

B2: Y115D in SEQ ID NO: 33: SEQ ID NO: 33 chimeric receptor with single substitution Y115D (protein)
chain: B1 chain with Y115D, S131L, D172S
modifications: synthetic sequence of chimeric LGIC
EC50 AZD-0328 [8]: no activity

B3: L131T, S172D in SEQ ID NO: 33: engineered chimeric α7-nAChR/GlyRα1 LGIC receptor: SEQ ID NO: 33 with substitutions L131T and S172D (protein)
chain: B1 chain with S131T
modifications: synthetic sequence of chimeric LGIC
percent quench of YFP fluorescence, 50 nM abt [1]: −11.09%
percent quench of YFP fluorescence, 100 nM abt [1]: −10.37%
percent quench of YFP fluorescence, 300 nM abt [1]: −4%
percent quench of YFP fluorescence, 1 uM abt [1]: 4.05%
percent quench of YFP fluorescence, 10 uM ach [2]: −12.24%
percent quench of YFP fluorescence, 100 uM ach [2]: −26.23%
percent quench of YFP fluorescence, 1 mM ach [2]: −1.16%
percent quench of YFP fluorescence, 3 mM ach [2]: 2.97%
percent quench of YFP fluorescence, 100 nM apn [3]: 1.23%
percent quench of YFP fluorescence, 1 uM apn [3]: 35.77%
percent quench of YFP fluorescence, 30 uM apn [3]: 68.29%
percent quench of YFP fluorescence, 100 nM azd [4]: −7.02%
percent quench of YFP fluorescence, 300 nM azd [4]: −0.48%
percent quench of YFP fluorescence, 30 uM azd [4]: 70.16%
percent quench of YFP fluorescence, 30 nM fac [6]: −21.36%
percent quench of YFP fluorescence, 300 nM fac [6]: 4.17%
percent quench of YFP fluorescence, 30 uM fac [6]: 65.94%
percent quench of YFP fluorescence, 1 uM tc6 [7]: −21.8%
percent quench of YFP fluorescence, 10 uM tc6 [7]: −27.08%
percent quench of YFP fluorescence, 500 uM tc6 [7]: −21.56%

B4: Y115E in SEQ ID NO: 33: SEQ ID NO: 33 chimeric receptor with single substitution Y115E (protein)
chain: B1 chain with Y115E, S131L, D172S
modifications: synthetic sequence of chimeric LGIC
EC50 AZD-0328 [8]: no activity
